Measured values published in publication PMC7655804.

Molecular target: ferroportin from Philippine tarsier (Carlito syrichta / Tarsius syrichta) (Carlito syrichta (Tarsius syrichta, Philippine tarsier))

| Substance | initial rate of Co^2+ transport by TsFpn proteoliposomes with both hepcidin and 11F9 Fab on the external side [min⁻¹] | initial rate of Co^2+ transport by TsFpn proteoliposomes with hepcidin on both inside and outside of the liposomes [min⁻¹] |
| --- | --- | --- |
| human hepcidin | 0.032 | – |
| human hepcidin (peptide) | – | 0.043 |
